In general, Kd refers to the constant that tells how readily two partners part at equilibrium.

In the test the target is C-terminal Tandem UBL domain of human USP7 (TUD^USP7), wild type (human). Nature of the test: ITC. For orientation: ITC needs no label: the signal is the heat of the interaction.
Sequence of C-terminal Tandem UBL domain of human USP7 (TUD^USP7), wild type (human) (chain, as listed by the source): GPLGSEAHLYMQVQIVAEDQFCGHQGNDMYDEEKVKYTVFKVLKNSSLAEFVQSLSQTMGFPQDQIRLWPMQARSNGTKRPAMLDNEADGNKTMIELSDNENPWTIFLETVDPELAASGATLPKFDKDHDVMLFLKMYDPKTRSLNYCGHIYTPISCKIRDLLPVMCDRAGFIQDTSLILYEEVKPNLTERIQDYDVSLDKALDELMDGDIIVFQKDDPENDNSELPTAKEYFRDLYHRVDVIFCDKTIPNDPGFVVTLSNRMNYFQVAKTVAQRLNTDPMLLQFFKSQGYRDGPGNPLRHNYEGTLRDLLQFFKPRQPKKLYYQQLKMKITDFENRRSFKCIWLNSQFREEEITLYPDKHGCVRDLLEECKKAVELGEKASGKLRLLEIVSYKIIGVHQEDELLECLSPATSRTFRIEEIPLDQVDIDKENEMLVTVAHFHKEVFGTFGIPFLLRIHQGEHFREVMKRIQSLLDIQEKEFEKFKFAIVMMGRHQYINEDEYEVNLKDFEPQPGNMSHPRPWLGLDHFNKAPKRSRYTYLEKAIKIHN
TGKGKWKRKSAGGGPSRAGSPRRTSKKTKVEPY [UHRF1 (642–674) (GST pull-down bait)] showed a Kd of 1.54 µM. With KGKGKGKGKGKP [KG-Linker of DNMT1 (GST pull-down bait)] the figure was 3.72 µM.

Molecule SGPRGPRKCARKTRHAETSGA [GST-tagged ICP0 (613–633), wild type] yielded a Kd of 0.27 µM.

(Values after paper PMC4624675 (2015).)
